Assay results reported in patent US20190248907A1 (Merck KGaA, published 2019).
Each block holds one binder with its values, some of them ahead of it.

Biological target: T1, human c-MET ECD (human, UniProt P08581 25-932)
T1 construct: also called recombinant human c-MET ECD; human c-MET ECD-His
Assay: not stated (summary of antibody properties, FIG. 6)

T1 sequence (P08581 25-932 limits assumed): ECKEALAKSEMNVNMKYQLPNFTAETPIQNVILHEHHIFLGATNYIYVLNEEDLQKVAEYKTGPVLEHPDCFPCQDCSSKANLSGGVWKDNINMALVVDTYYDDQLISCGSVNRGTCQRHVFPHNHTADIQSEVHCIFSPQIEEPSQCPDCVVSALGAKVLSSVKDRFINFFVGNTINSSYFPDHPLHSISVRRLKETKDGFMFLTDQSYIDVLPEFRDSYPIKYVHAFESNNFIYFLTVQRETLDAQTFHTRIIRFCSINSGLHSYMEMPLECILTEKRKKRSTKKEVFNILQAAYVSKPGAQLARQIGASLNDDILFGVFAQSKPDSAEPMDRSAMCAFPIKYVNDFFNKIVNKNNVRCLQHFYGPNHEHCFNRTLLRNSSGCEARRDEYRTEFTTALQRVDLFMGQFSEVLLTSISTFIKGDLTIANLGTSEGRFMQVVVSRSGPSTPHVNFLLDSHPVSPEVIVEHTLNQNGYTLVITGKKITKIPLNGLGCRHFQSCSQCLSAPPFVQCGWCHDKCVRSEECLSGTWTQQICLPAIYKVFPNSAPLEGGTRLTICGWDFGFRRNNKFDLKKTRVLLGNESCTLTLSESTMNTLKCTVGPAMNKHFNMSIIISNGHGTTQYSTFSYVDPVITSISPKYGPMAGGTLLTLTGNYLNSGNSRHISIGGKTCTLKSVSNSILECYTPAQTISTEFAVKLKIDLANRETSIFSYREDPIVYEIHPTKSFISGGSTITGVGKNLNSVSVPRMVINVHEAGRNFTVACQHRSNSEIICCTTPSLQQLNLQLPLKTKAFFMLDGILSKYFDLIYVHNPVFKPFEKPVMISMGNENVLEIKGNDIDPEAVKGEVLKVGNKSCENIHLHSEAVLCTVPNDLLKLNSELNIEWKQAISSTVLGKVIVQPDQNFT

Kd: ~0.3 nM
B1: oa CS06 (antibody, V domains shown)
VH: QVQLQQSGAEVKKPGSSAKVSCKASGGTFSSNAISWVRQAPGQGLEWMGGIIPIFGTAIYAQKFQGRVTITADESTSTAYMELSSLRSEDTAVYYCARDQRGYYYYYYYGMDVWGQGTTVTVSS
VL: QLVLTQSPSVSVAPGKTARITCGGNNIRNVGVHWYQKKPGQAPILVVYDDDDRPSGVPERFSGSNSGNTATLTISRVEAGDEADYYCQVWDSATDQRVFGGGTKLTVL
notes: also called one-armed CS06; anti-c-MET clone CS06 (monovalent one-armed format); copies: 1 + 1

Kd: ~0.0196 nM
B2: biparatopic bispecific heterodimeric immunoglobulin molecule comprising Fab fragments CS06 and B10v5 (bispecific antibody)
chain 1: QLVLTQSPSVSVAPGKTARITCGGNNIRNVGVHWYQKKPGQAPILVVYDDDDRPSGVPERFSGSNSGNTATLTISRVEAGDEADYYCQVWDSATDQRVFGGGTKLTVLGQPKAG
chain 2: B1 VH
chain 3: EPVLTQPPSVSVAPGETATIPCGGDSLGSKIVHWYQQRPGQAPLLVVYDDAARPSGIPERFSGSKSGTTATLTISSVEAGDEADYFCQVYDYHSDVEVFGGGTKLTVLGQPKAA
chain 4: not shown

Kd: ~0.134 nM
B3: CS06 IgG1 (antibody, V domains shown)
VH: B1 VH
VL: QLVLTQSPSVSVAPGKTARITCGGNNIRNVGVHWYQKKPGQAPILVVYDDDDRPSGVPERFSGSNSGNTATLTISRVEAGDEADYYCQVWDSATDQRVFGGGTKLTVLG
notes: Bivalent IgG1; also called anti-c-MET clone CS06
